According to IntAct's records for PubMed 33965375:

Molecular target: spike_sars2 S (UniProt P0DTC2)

Row | Substance | effect of a mutation on the interaction
1 | Endoplasmic reticulum chaperone BiP (Homo sapiens), P11021 R197H | decreasing interaction strength
2 | Endoplasmic reticulum chaperone BiP (Homo sapiens), P11021 G227D | decreasing interaction strength
